Results from article PMC9299544.
Read-outs that look alike come from different tables or passages of the source. One block for each substance: values may come before it.

Experiments:
[1] = target: chicken skeletal muscle actin (ADP F-actin) (chicken) (UniProt P68139); assay: cryo-EM structure; Mg-ADP state: wild-type myosin-15 incubated with 5 mM ADP-Mg for 20 min, applied to 0.6 uM ADP F-actin on the grid; else as for the rigor samples
[2] = target: chicken skeletal muscle actin (ADP F-actin) (chicken) (UniProt P68139); assay: cryo-EM structure; rigor state: 6 uM myosin-15 treated with apyrase (10 U/ml), applied twice to 0.6 uM ADP F-actin on the grid; KMEI buffer with 0.01% NP-40 substitute; 25°C; helical reconstruction, symmetry expansion and focused classification
[3] = target: wild-type mouse myosin-15 motor domain with 2 IQ motifs (MD-2IQ), heavy chain (mouse); assay: SEC; heavy chain, ELC and RLC co-expressed in Sf9; FLAG M2 resin, MonoQ, then Superdex 200 in 10 mM Mops, 100 mM KCl, 0.1 mM EGTA, pH 7.0; single peak
[4] = target: F-actin (UniProt P68133); conditions: cited from earlier work
[5] = target: F-actin (UniProt P68133); conditions: cited from earlier work; remark: listed apart in the source

- stoichiometry N [1]: 1
- stoichiometry N [2]: 1
Substance: wild-type mouse myosin-15 motor domain with 2 IQ motifs (MD-2IQ), as the myosin-15:ELC:RLC complex (from UniProt P60661 1-151)

- stoichiometry N [3]: 1
Substance: bovine smooth muscle essential light chain (ELC; MYL6) (from UniProt P60661 1-151) (natural protein)

Substance: myosin-15 motor domain (from UniProt Q9QZZ4)
- Kd [4]: 200 nM
- Kd [5]: 310 nM

- stoichiometry N [3]: 1
Substance: chicken regulatory light chain (RLC; MYL12B) (natural protein)
